According to patent publication US8586357B2, “Markers of definitive endoderm” (ViaCyte, Inc., priority 2003, dated 2013):

How the values were obtained:
Type in all cases: cell-based, human
hESCs [1] = assay: CXCR4+ cell number by flow cytometry (FACS); settings: 0, 10 or 100 ng/mL; 7 days; 0.5%-2% FBS; FIGS. 30A-C
Procedure: hESCs were differentiated in RPMI media supplemented with 0.5%-2% FBS (increased from 0.5% to 1.0% to 2.0% over the first 3 days of differentiation) and either 0, 10, or 100 ng/mL of activin A. After 7 days of differentiation the cells were dissociated in PBS without Ca^2+/Mg^2+ containing 2% FBS and 2 mM (EDTA) for 5 minutes at room temperature. The cells were filtered through 35 um nylon filters, counted and pelleted. Pellets were resuspended in a small volume of 50% human serum/50% normal donkey serum and incubated for 2 minutes on ice to block non-specific antibody binding sites. To this, 1 uL of mouse anti-CXCR4 antibody (Abeam, cat# ab10403-100) was added per 50 uL (containing approximately 10^5 cells) and labeling proceeded for 45 minutes on ice. Cells were washed by adding 5 mL of PBS containing 2% human serum (buffer) and pelleted. A second wash with 5 mL of buffer was completed then cells were resuspended in 50 uL buffer per 10^5 cells. […] Cells were resuspended at 5×10^6 cells/mL in buffer and analyzed and sorted using a FACS Vantage (Beckton Dickenson) by the staff at the flow cytometry core facility (The Scripps Research Institute). Cells were collected directly into RLT lysis buffer (Qiagen) for subsequent isolation of total RNA for gene expression analysis by real-time quantitative PCR.

hESCs [2] = assay: Isolation of definitive endoderm cells by FACS using cell surface markers of Table 5 (Example 13); settings: 100, 50 or 25 ng/ml activin A; Example 13 written in present tense
Procedure: Using methods, such as those described in the above Examples, hESCs are differentiated to produce definitive endoderm. In particular, to increase yield and purity of definitive endoderm in differentiating cell cultures, the serum concentration of the medium is controlled as follows: 0% FBS on day 1, 0.2% FBS on day 2 and 2.0% FBS on days 3-6. Differentiating cell populations are grown in the presence of 100 ng/ml, 50 ng/ml or 25 ng/ml activin A, whereas non-differentiating control populations are grown in the absence of activin A.
An appropriate amount of labeled antibody that binds to one of the markers listed above is added to a sample of each culture and labeling proceeds on ice. Cells are washed by adding PBS and pelleted. A second wash with buffer is completed then cells are resuspended. Secondary antibody (FITC conjugated secondary antibody is added and allowed to label for about 30 minutes followed by two washes in buffer as above. Cells are resuspended and analyzed and sorted using a FACS. Cells are collected directly into RLT lysis buffer for subsequent isolation of total RNA for gene expression analysis by real-time quantitative PCR.

hESCs [3] = assay: Validation of definitive endoderm markers by Q-PCR (Example 12); settings: 100 ng/ml activin A vs no exogenous activin A; Example 12 written in present tense
Procedure: Using the methods, such as those described in the above Examples, hESCs are differentiated to produce definitive endoderm. In particular, to increase the yield and purity of definitive endoderm in differentiating cell cultures, the serum concentration of the medium is controlled as follows: 0% FBS on day 1, 0.2% FBS on day 2 and 2.0% FBS on days 3-6. Differentiating cell populations are grown in the presence of 100 ng/ml activin A, whereas non-differentiating control populations are grown in the absence of activin A. Human embryonic cell cultures grown in the presence or absence of activin A and in either 2% serum or 10% serum over the entire 6 day differentiation period are also monitored. Daily samples of each culture are withdrawn and the amount of mRNA transcript produced for each of the markers AGPAT3, APOA2, C20orf56, C21orf129, CALCR, CCL2, CER1, CMKOR1, CRIP1, CXCR4, CXorf1, DIO3, DIO3OS, EB-1, EHHADH, ELOVL2, EPSTI1, FGF17, FLJ10970, FLJ21195, FLJ22471, FLJ23514, FOXA2, FOXQ1, GATA4, GPR37, GSC, LOC283537, MYL7, NPPB, NTN4, PRSS2, RTN4RL1, SEMA3E, SIAT8D, SLC5A9, SLC40A1, SOX17, SPOCK3, TMOD1, TRPA1, TTN, AW166727, AI821586, BF941609, AI916532, BC034407, N63706 and AW772192 is measured by Q-PCR.

B1: Activin A: growth factor of the TGFβ superfamily, Nodal/Activin subgroup; definitive endoderm inducer (protein, UniProt P08476 311-426, looked up)
Inhibin beta A chain: GLECDGKVNICCKKQFFVSFKDIGWNDWIIAPSGYHANYCEGECPSHIAGTSGSSLSFHSTVINHYRMRGHSPFANLKSCCVPTKLRPMSMLYYDDGQNIIKKDIQNMIVEECGCS
number of CXCR4+ cells as dose is increased (hESCs [1]): increase dramatically
number of cells positive for the Table 4 markers as dose is increased (hESCs [2]): increase significantly
expression levels of the Table 4 markers (AGPAT3 ... AW772192) (hESCs [3]): high
